# According to patent US12391919B2, “Culture medium, coating matrix and method for maturing midbrain dopaminergic progenitor cells” (NUWACELL BIOTECHNOLOGIES CO., LTD., priority 2022, dated 2025):
# Test system: imDAPs
# Assay: imDAP maturation: cell morphology, adhesion and cell yield
# Type: cell-based, human
# Conditions: Example 13; maturation media supplemented with 10 μM Y27632; day 7; FIG. 8A
# Experimental: imDAPs were produced according to the method described in CN201910169525.0, and expanded as described in Example 10. […] MM-H used in Example 11 contained the following components: Neurobasal™ medium, 1% (v/v) Glutamax, 0.5 mM Db-cAMP sodium salt, 200 μM ascorbic acid, 20 ng/ml BDNF, 20 ng/ml GDNF, 1 ng/ml TGF-β3, 10 μM DAPT, HhPLT (0.5%, 1%, 2%). MM-B used in Example 11 contained the following components: Neurobasal, 1% (v/v) Glutamax, 0.5 mM Db-cAMP sodium salt, 200 μM ascorbic acid, 20 ng/ml BDNF, 20 ng/ml GDNF, 1 ng/ml TGF-β3, 10 μM DAPT, 2% (v/v) B27 (50×) (as control). The above HhPLT was produced from hPLT as follows. The hPLT was centrifuged at 3000 g for 30 min at 4° C. to obtain the supernatant, which was heated to 56° C. for 30 min. The suspension was finally cooled down to 4° C. at least 5 min, and spun at 3000 g for 30 min at 4° C. to obtain the HhPLT supernatant. Aliquots were prepared and stored at −80° C. until use. The above Medium was changed every 3rd day. On day 7, the imDAPs at early maturation stage were dissociated enzymatically with 1× TrypLE, centrifuged at 250 g for 5 minutes.
# imDAPs were produced according to the method described in CN201910169525.0, and expanded as described in Example 10. […] Medium was changed every 3rd day. On day 7, the imDAPs at early maturation stage were dissociated enzymatically with 1× TrypLE, centrifuged at 250 g for 5 minutes. Cells were collected for RT-qPCR analysis of EN1, LMX1A, FOXA2, NURR1, SOX6 and TH gene expression. The maturation medium used in Example 12 contained the following components: Neurobasal™ medium, 1% (v/v) Glutamax, 1% (v/v) HhPLT, 0.5 mM Db-cAMP sodium salt, 200 μM ascorbic acid, 20 ng/mL BDNF, 20 ng/mL GDNF, 1 ng/mL TGF-β3, 10 μM DAPT.
# imDAPs were produced according to the method described in CN201910169525.0, and expanded as described in Example 10. […] Cells were collected and counted by Vi-cell cytometer. The cells were analyzed by RT-qPCR for EN1, LMX1A, FOXA2, NURR1, SOX6 and TH gene expression. […]
molecule,measurement,value
"VTN: vitronectin, first coating matrix that supports cell adhesion (protein, UniProt P04004 20-478, looked up) Vitronectin: DQESCKGRCTEGFNVDKKCQCDELCSYYQSCCTDYTAECKPQVTRGDVFTMPEDEYTVYDDGEEKNNATVHEQVGGPSLTSDLQAQSKGNPEQTPVLKPEEEAPAPEVGASKPEGIDSRPETLHPGRPQPPAEEELCSGKPFDAFTDLKNGSLFAFRGQYCYELDEKAVRPGYPKLIRDVWGIEGPIDAAFTRINCQGKTYLFKGSQYWRFEDGVLDPDYPRNISDGFDGIPDNVDAALALPAHSYSGRERVYFFKGKQYWEYQFQHQPSQEECEGSSLSAVFEHFAMMQRDSWEDIFELLFWGRTSAGTRQPQFISRDWHGVPGQVDAAMAGRIYISGMAPRPSLAKKQRFRHRNRKGYRSQRGHSRGRNQNSRRPSRATWLSLFSSEESNLGANNYDDYRMDWLVPATCEPIQSVFFFSGDKYYRVNLRTRRVDTVDPPYPRSIAQYWLGCPAPGHL",cell adhesion and growth,could grow normally
